The text below walks through data of patent US20160347810A1 (AFASCI, published 2016).

The labels stand for the following.
B1: AFA-Peptide 3 (MP-3) (peptide)
peptide: H-NFVPTNVGPFAF-NH2
notes: Synthetic dodecapeptide NH2-N-F-V-P-T-N-V-G-P-F-A-F-CONH2; also called AFA-CGRP receptor antagonist peptide 3
B2: AFA-Peptide 10 (MP-10) (peptide)
peptide: H-NFAPTNVGPFAF-NH2
notes: Analog of AFA-peptide 3: NH2-N-F-A-P-T-N-V-G-P-F-A-F-CONH2
B3: AFA-Peptide 8 (MP-8) (peptide)
peptide: H-NLVPTNVGPFAF-NH2
notes: Analog of AFA-peptide 3: NH2-N-L-V-P-T-N-V-G-P-F-A-F-CONH2
B4: AFA-Peptide 7 (MP-7) (peptide)
peptide: H-NFLPTNVGPFAF-NH2
notes: Analog of AFA-peptide 3: NH2-N-F-L-P-T-N-V-G-P-F-A-F-CONH2
B5: AFA-Peptide 6 (MP-6) (peptide)
peptide: H-NFIPTNVGPFAF-NH2
notes: Analog of AFA-peptide 3: NH2-N-F-I-P-T-N-V-G-P-F-A-F-CONH2
B6: AFA-Peptide 9 (MP-9) (peptide)
peptide: H-NFFPTNVGPFAF-NH2
notes: Analog of AFA-peptide 3: NH2-N-F-F-P-T-N-V-G-P-F-A-F-CONH2

No end group written: not given here.

T1 sequence (Q16602 23-461, chain 1 of 2): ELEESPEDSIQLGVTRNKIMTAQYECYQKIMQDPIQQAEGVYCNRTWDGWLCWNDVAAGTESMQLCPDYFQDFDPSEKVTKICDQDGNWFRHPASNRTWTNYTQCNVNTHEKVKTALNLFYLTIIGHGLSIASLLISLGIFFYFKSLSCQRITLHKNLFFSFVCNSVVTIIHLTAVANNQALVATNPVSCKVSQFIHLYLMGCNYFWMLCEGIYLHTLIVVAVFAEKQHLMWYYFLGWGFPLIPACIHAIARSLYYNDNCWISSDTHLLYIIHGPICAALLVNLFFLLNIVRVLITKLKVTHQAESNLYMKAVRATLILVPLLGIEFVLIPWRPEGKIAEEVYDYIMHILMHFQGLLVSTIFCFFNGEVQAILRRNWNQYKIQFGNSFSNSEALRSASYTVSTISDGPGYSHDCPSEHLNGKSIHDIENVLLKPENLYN
T1 sequence (O60894 27-148, chain 2 of 2): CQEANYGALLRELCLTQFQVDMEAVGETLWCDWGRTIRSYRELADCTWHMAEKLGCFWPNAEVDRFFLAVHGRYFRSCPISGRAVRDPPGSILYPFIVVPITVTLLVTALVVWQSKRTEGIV

This test concerns the target T1, human calcitonin CGRP1 (CGRP1) membrane (human, UniProt Q16602 23-461; O60894 27-148).
T1 construct: whole, on cells; Purchased membrane preparation (Perkin Elmer), homogenised in assay buffer; the receptor stood in membranes, not intact cells; also called CGRP receptors; CGRP receptor
The test can be described thus: displacement of 0.24 nM [125I]-CGRP from human CGRP1 receptor membranes, filtration; Ki by Cheng-Prusoff; mean ± SD. As to the method:
CGRP1 membrane was homogenized in the assay buffer (50 mM Tris-HCl pH 7.4, 5 mM MgCl₂, 0.5% BSA, 0.05% Tween20). […] After 1 h of incubation, at room temperature, samples were filtered, using a Tomtec cell harvester, through glass fiber filters that had been presoaked in 0.05% polyethyleneimine and washed with the cold Tris buffer (50 mM Tris-HCl pH7.4). Filters were counted on a betaplate reader (Wallac).
A word on the Ki: it is a dissociation constant, usually derived from enzyme kinetics or from competition with a known ligand. With YVPTAVGPFAF-NH2 (also called conventional CGRP 27-37) [CGRP 27-37], the inhibitory constant (Ki) worked out at 697 nM. Turning to B1, the Ki is 33.3 nM. The result for B2 reads 33.4 nM; that for B3, 315 nM. B4: the inhibition constant (Ki) is 54.8 nM. The result for B5 reads 63.7 nM; that for B6, 49.6 nM.
